# PMC9519043
# Tests used:
# [1] = test system: HRSV virus particle (Human respiratory syncytial virus strain A2 (ATCC VR-1540)); experiment: microfluidic affinity capture, RT-qPCR; settings: SPR (BIAcore T200, […], pH not stated
# [2] = target: SARS-CoV-2 virus particle (S protein), native, patient saliva (SARS-CoV-2 (clinical isolates)) (UniProt P0DTC2); experiment: microfluidic affinity capture, RT-qPCR; settings: 5' amino C12 linker and TEG spacer 9; 3' inverted dT; SPR (BIAcore T200, […], pH not stated; chip capture from buffer or saliva at 20 ul/min
Sequence,binding signal [1] [% recovery],binding signal [2] [% recovery]
"TAGGGAAGAGAAGGACATATGATAGTGCGGTGAGCCGTCGGACATACAAATACTTGACTAGTACATGACCACTTGA [HRSV aptamer (Percze et al.), chip form]",74.2,
"CAGCACCGACCTTGTGCTTTGGGAGTGCTGGTCCAAGGGCGTTAATGGACA [51-nt SARS-CoV-2 aptamer, chip form]",,94.7
